In assay [1] the target is Pertuzumab-specific HER2 antigen (Rhinogen®). Put plainly: SPR, Biacore T200; IgG captured by anti-human Fc on CM5 chip, antigen flowed over.
For assay [2] the target is unchanged. Put plainly: ELISA; antigen coated at 2 µg/ml, HRP anti-human light chain detection.

Regarding Pertuzumab (antibody), in assay [1], the Kd (usually the constant that tells how readily two partners part at equilibrium) worked out at 2.81 nM. Also, the EC50 (commonly the concentration at which the effect is half-maximal) in assay [2] worked out at 0.0153 µg/mL.
